# B1: Methanothermobacter thermautotrophicus MCM (MthMCM), wild type (natural protein, UniProt O27798 1-666, looked up)
# chain: MMKTVDKSKTLTKFEEFFSLQDYKDRVFEAIEKYPNVRSIEVDYLDLEMFDPDLADLLIEKPDDVIRAAQQAIRNIDRLRKNVDLNIRFSGISNVIPLRELRSKFIGKFVAVDGIVRKTDEIRPRIVKAVFECRGCMRHHAVTQSTNMITEPSLCSECGGRSFRLLQDESEFLDTQTLKLQEPLENLSGGEQPRQITVVLEDDLVDTLTPGDIVRVTGTLRTVRDERTKRFKNFIYGNYTEFLEQEFEELQISEEDEEKIKELAGDPNIYEKIIRSTAPSIHGYREVKEAIALQLFGGTGKELDDKTRLRGDIHILIVGDPGIGKSQMLKYVSKLAPRGIYTSGKGTSGVGLTAAAVRDEFGGWSLEAGALVLGDKGNVCVDELDKMREEDRSAIHEALEQQTISIAKAGIMATLNSRCSVLAAANPKFGRFDSYKSIAEQIDLPSTILSRFDLIFVVEDKPDEEKDRELARHILKTHKEDHMPFEIDPELLRKYIAYARKNVRPVLTDEAMQVLEDFYVSMRASAADEDSPVPITARQLEALVRLSEASAKIKLKEHVEAEDARKAIKLSQACLKQVGYDPETGKIDIDKVEGRTPKSERDKFRLLLELIKEYEDDYGGRAPTNILITEMMDRYNVSEEKVEELIRILKDKGAIFEPARGYLKIV
# Tests used:
# [1] = target: MthMCM R137A mutant (Methanothermobacter thermautotrophicus); test: negative-stain electron microscopy
# [2] = target: MthMCM RR137,160AA double mutant (Methanothermobacter thermautotrophicus); test: AUC
# AUC = target: the molecule itself; test: AUC
# [3] = target: the molecule itself; test: SEC + other: sucrose gradient sedimentation
molecule,measurement,setting,value
MthMCM R137A mutant (natural protein),stoichiometry N,[1],14 subunits
"MthMCM RR137,160AA double mutant (natural protein)",stoichiometry N,[2],7 subunits
B1,stoichiometry N,AUC,12.2 subunits/complex
same,stoichiometry N,[3],11.6 monomers
